According to publication PMC6411929, “H-NS uses an autoinhibitory conformational switch for environment-controlled gene silencing” (Nucleic Acids Research, 2018):

Legend:
[1] = test system: H-NS C-terminal region 84-137; assay: MST; details: MST: 50 mM Tris-HCl, 50 mM NaCl, 2 mM MgCl2, 0.005% Tween-20, pH not stated; anisotropy: 20 mM HEPES pH 7.5, 50 mM NaCl, 2 mM MgCl2, 25 or 37 C, 20 nM DNA
[2] = target: H-NSΔs2 with an N-terminal mCherry fusion (mChH-NSΔs2) (Salmonella typhimurium) (UniProt P0A1S2); assay: dynamic light scattering; hydrodynamic radius against temperature, 5 to 60°C; protein at 125 to 500 μM; 150, 250 or 500 mM NaCl; pH 6, 7 or 8 (100 mM MES, MOPS or HEPES)
[3] = test system: H-NS full length (H-NSFL); assay: MST; details: room temperature (25 C), 50 mM NaCl, 2 mM Mg2+, MST: 50 mM Tris-HCl, 2 mM MgCl2, 0.005% Tween-20, pH not stated, anisotropy: 20 mM HEPES pH 7.5, 50 mM NaCl, 2 mM MgCl2, 25 or 37 C, 20 nM DNA
[4] = test system: H-NS full length (H-NSFL); assay: fluorescence anisotropy; details: 25 C, 50 mM NaCl, 2 mM Mg2+, MST: 50 mM Tris-HCl, 2 mM MgCl2, 0.005% Tween-20, pH not stated, anisotropy: 20 mM HEPES pH 7.5, 50 mM NaCl, 2 mM MgCl2, 25 or 37 C, 20 nM DNA
[5] = target: H-NS C-terminus (84–137) (Salmonella typhimurium) (UniProt P0A1S2); assay: MST; 20 nM NT-647-labelled H-NS C-terminus, serial dilutions of the unlabelled partner; 50 mM Tris-HCl, 50 mM NaCl, 2 mM MgCl2, 0.005% Tween-20; 30 min incubation; single-binding-site fit; also repeated at 100, 250, 500 and 1000 mM NaCl
[6] = target: the molecule itself; assay: SAXS; H-NS 2-57,C21S in solution at 1-4 mg/ml, 10 to 42°C and a range of salt and buffer conditions (150 mM NaCl, 1 mM EDTA, 20 mM Tris pH 7.5 in Figure 2B); patterns compared with parallel and antiparallel site1 dimer models

Molecule 13 bp AT-rich DNA has a Kd [1] of 14.5 µM.

Work on “H-NSΔs2 with an N-terminal mCherry fusion (mChH-NSΔs2) (from UniProt P0A1S2 1-137) (natural protein)” yielded a stoichiometry N [2] of 2.

For “101 bp DNA with four consensus H-NS motifs”, the Kd [3] was 7.4 µM and the Kd [4] was 10.2 µM.

For “H-NS N-terminus (2–57), unlabelled, pET-M construct with N-terminal His6-tag (from UniProt P0A1S2 2-57) (domain or fragment)”, the Kd [5] was 4.1 µM.

B1: Salmonella typhimurium H-NS_(2–57,C21S) (domain or fragment)
chain: SEALKILNNIRTLRAQARESTLETLEEMLEKLEVVVNERREEESAAAAEVEERTRK
notes: H-NS, Salmonella typhimurium, residues 2-57 (site1) with C21S
With B1 the “stoichiometry N” value [6] was 2.
